From the RNAGym collection of RNA variant scans (doi:10.1073/pnas.2313332121)
Fewer inactive variants are shown than the library holds.

B1: TPR 5TU (parent)
chain: GGAUCUUCUCGAUCUAACAAAAAAGACAAAUCUGCCACAAAGCUUGAGAGCAUCUUCGGAUGCAGAGGCGGCAGCCUUCGGUGGCGCGAUAGCGCCAACGUUCUCAACUAUGACACGCAAAACGCGUGCUCCGUUGAAUGGAGUUUAUCAUG

Variants of: B1
Test: polymerase ribozyme fitness, log enrichment relative to wild type (log ratio); higher = more active; in vitro selection for triplet polymerase activity
In short: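 In triplicate, a single round of in vitro selection was run on each mutant library, PCR-built and transcribed, covering one subunit of a heterodimeric triplet polymerase ribozyme. Frozen incubation at −7 °C followed annealing with a biotinylated primer, partner subunit and triplets, and extended constructs were then gel-excised, streptavidin-captured and taken through RT-PCR. Fitness is the logarithm of genotype enrichment over wild-type enrichment, from inverse-variance-weighted replicate averages of Illumina-sequenced inputs and outputs. […] only genotypes with ≥10 input reads and ≥1 read per output were kept.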

Going from GGAUCUUCUCGAUCUAACACAAAAGAUAAAUCUGCCACAAAGCUUGAGAGCAUCUUCGGAUGCAGAGGCGGCAGCCUUCGAUGGCACGAUAGCGCCAAGGUUCUCAACUAUGACACGCAAAACGCGUGCUCCGUUGAAUGGAGUUUAUCAUG to GGAUCUUCUCGAUCUAACACAAAAGACAAAUCUGCCACUAAGCUUGAGAGCAUCUUCGGAUGCAGAGGCGGCAGCCUUCGGUGGCGCGAUAGCGCCAACGUUCUCGACUAUGACACGCAAAACGCGUGCUUCGUUGAUUGGAGUUUAUCAUG, the “polymerase ribozyme fitness (log ratio)” value falls from -2.96 to no more than -4.2.

Going from GGAUCUUCUCGAUCUAACACAAAAGACAAAUCUGCCACAAAGCUUGAGAGCAUCUUCGGAUGUCGAGGCGGCAGCCUUCGGUGGCGCGAUAGCGCCAACGUUCUCAACUAUGACACGCAAAACGCGUGCUCCGUUGAAUGGAGUUUAUCAUG to GGAUCUUCUCGAUCUAACACAAAAGACAAAUCUGCCACAAAGCUUGAGAGCAUCUUCGGCUGCAGAGGCGGCAGCCUUCGGUGGAGCGAUAGCGCCAACGUUCUCAACUAUGACACGCAAAACGCGUGCUCCGUUGAAUGGAGUUUAUCAUG, the “polymerase ribozyme fitness (log ratio)” value rises from no more than -4.2 to -2.66.

First: GGAUCUUCUCGAUCUAACACAAAAGACAAAUCUGCCACAAAGCUUGAGAGCAUCUUCGGGUGCAGAGGCGGCAGCCUUCGGUGGCGCGAUAGCGCCAACGUUCUCAACUAUGACACGCAAAACGCGUGCUCCGUUGAAUGGAGUUUAUCAUG
Second: GGAUCUUCUCGAUCUAACACAAAAGACUAAUCUGCCACAAAGCUUGACAGCAUCUUCGGAUGCAGAGGCAGCAGCCUUCGGUGGCGGGAUAGCGCCAACGUUCUCAACUAUGACACGCAGAACGCGUGCUCCGUCGAAUGGAGUUUAUCAUG
The “polymerase ribozyme fitness (log ratio)” value of the first is higher: -0.605 for the first, no more than -4.2 for the second.

Compared with GGAUCUUCUCGAUCUAACACAAAAGACAAAUCUGCCACAAAGCUUGAGCGCCUCUUUGGAUGCAGAGGCGGCAGCAUUCGGUGGCGCAAUAGCGCCAACGUUCUCGACUAUGACACGCAAAACGCCUGCUCCGUUGAAUGGAGUGUAUCAUG, GGAUCUUCUCGAUCUAACACAAAAGACAAAUAUGCCACAAAGCUUGAGAGCGUCUUCGGAUGCAGAGGCGGCAGCCUUCGGUGGCGCGAUUGCACCAAUGUUCUCAACUAUGACACGCAAAACGCGUGCUCCGUUGAAUGGAGUUUUUCAUU is higher in “polymerase ribozyme fitness (log ratio)” value: no more than -4.2 for the first, -3.97 for the second.

Going from GGAUCUUCUCGAUCUAACACAAAAGACAAAUCUGCCACAAAGCUUGCGAGCAUCUUCGGAUGCAGAGGCGGCAGCCUUCGGUGGCGCGAUAGCGCCAACGUUCUCAACUAUGACACGCAAAACGCGUGCUCCGUUGAAUGGAGUUUAUCAUG to GGAUCUUCUCGAUCUAACACAAAAGACAAAUCUGCCACAAAGCUUGAGAGCAUCUUGGGAUGCAGAGGCGGCAGCCUUCGGUGGCGCGAUAGCGCCAACGUUCUGAACUAUGACACGCAAAACGCGUGCUCCGUUGAAUGGAGUUUAUAAUG, the “polymerase ribozyme fitness (log ratio)” value falls from -0.462 to no more than -4.2.

Going from GGAUCUUCUCGAUCUAACACAAAAGACAAAUCUGCCACAAAGCUUGAGAGCAUCUUCGGAUGUAGAGGCGGCAGCCUUCGGUGGCGCCAUAGCGUCAACGUUCUCAACUAUGACACGCAAAACGCGUGCUCCGUUGAAUGGAGUUUAUCAUG to GGAUCUUCUCGAUCUAACACAAAAGACAAAUCUGCCACAAAGCUUGAGAGCAUUUUCGGAUGCAGAGGCGGCAGCCUUCGGUGGCGCGAUAGCGUCAACGUUCUCAACUAUGACACGCAAAACGCGUGCUCCGUUGAAUUGAGUUUAUCAUG, the “polymerase ribozyme fitness (log ratio)” value rises from no more than -4.2 to -3.23.

Going from GGAUCUUCUCGAUCUAACACAAAAGACAAAUCUGCAACAAAGCUUGAGAGCAUCUUCGGAUGCAGAGGCGGCAGCCUUCGGUGGCGCGAUAGCGCCAACGUUCUCAACUAUGACACGCAAAACGCGUGCUCCGUUGAAUGGAGUUUAUCAUG to GGAUCUUCUCGAUCUAACACAAAAGACACAUCUGCCACAAAGCUUGAGAGCAUCUUCGGAUGCAGAGGCGGCAGCCUUCGGUGGCGGGAUAGCGCCAACGUUCUCAACUAUGACACGCAAAGCGCGUGCUCCGUUGAAUUGAGUUUAUCAUG, the “polymerase ribozyme fitness (log ratio)” value falls from -4.06 to no more than -4.2.

Compared with GGAUCUUCUCGAUCUAACACAAAAGACAAAUCUGCCACACAGCUUGAGAGCAUCUACGGAUGCAGAGGCGGCAGCCUUCGGUGGCGCGAUAUCGCCAACGUUCUCAACUAUGACACGCAAAACGCGUGCUCCGUUGAAUGGAGUUUAUCAUG, GGAUCUUCUCGAUCUAACACAAAAGACAAAUCUGCCACAAAGCUUGAGUGCAUCUUCGGCUGCAGAGGCGGCAGCCUUCGGUGGCGCGAUAGCGCCAACGUUCUCAACUAUGACACGCAAAACGCGUGCUCCGUUGAAUGGAGUUUAUCAUG is lower in “polymerase ribozyme fitness (log ratio)” value: -0.349 for the first, -3.14 for the second.

GGAUCUUCUCGAUCUAACACAAAUGACAAAUCUGCCACAAAGCUUGAGAGCAUCUUCGGAUGCAGAGGCGGCAGCCUUCGGUGGCGCGAUAGUGCCAACGUUCUCAACUAUGACACGCAAAACGCGUGCGCCGUUGAAUGGAGUUUAUCGUG and GGAUCUUCUCGAUCUAACACAAAAGACAAAUCUGCUACAAAGCUUGAGAGCAUCUUCGGAUGCAGAGGCGGCAGCCUUCGGUGGGGCGAUAGCGCCAACGUUGUCAACUAUGACACGCAAAACGCGUGCUCCGUUGAAUGGAGUUUAUCAUG cannot be ordered by “polymerase ribozyme fitness (log ratio)” value: no more than -4.2 for the first, no more than -4.2 for the second.

GGAUCUUCUCGAUCUAACACAAAAGACAAAUCUGCCACCAAGCUUGAGAGCAUCUUCGGAUGCAGAGGCGGCAGCCUUGGGUGGCGCGAUAGCGCCAACGUUCUCGACUAUGACACGCAAAACUCGUGCUCCGUUGAAUGGAGUUUAUCAUG and GGAUCUUCUCGAUCUAACACAAAAGACAAAUCUGCCACAAAGCUUGAGAGCAUCUUCGGAUGCAGAGGCGGCGGCCUUCGGUGGCGGGAUAGCGCCAACGUUCUCAACUAUGAUACGCAAAACGCGUGCUCCGUUGAAUGAAGUUUAUCAUG cannot be ordered by “polymerase ribozyme fitness (log ratio)” value: no more than -4.2 for the first, no more than -4.2 for the second.

GGAUCUUCUCGAUCUAACACAAAAGACAAAUCUGCCACAAAGCUUGCGAGCAUCUUCGGGUGCAGAGGCGGCAGCCUUCGGUGGAGCGAUAGCGCCAACGUUCUCAACUAUGACACGCAAAACGCGUGCUCCGUUGAAUUGAGUUUAUCAUG and GGAUCUUCUCGAUCUAACACAAAAGACAAAUCUGCCACAAAGUAUGAGAGCAUCGUCGGAUGCAGAGGCGGCAGCCUUUGGUGGCGCGAUAGCGCCAACGUUCUCAACUAUGACACGCAAAACGCGUGCUCCGUUGAAUGAAGUUUAUCAUG cannot be ordered by “polymerase ribozyme fitness (log ratio)” value: no more than -4.2 for the first, no more than -4.2 for the second.

GGAUCUUCUCGAUCUAACACAAAAGACAACUCUGCCACAAAGCUUGAGAGCAUCUUCGGAUGCAGAGGCGGCAGCCUUCGGUGGCGCGAUAGCGCCAACCUGCUCAACUAUGACACGCAAAACGCGUGCUCCGUUGAAUGGAUUGUAUCAUG and GGAUCUUCUCGAUCUAACACAAAAGACAAAUCUGCCACAAAGCUUGAGAGCUUCUUCGGAUGCAGAGGCGGCAGCCUUCGGUGGCGCGAUAGUGAAAACGUUCUCAACAAUGACACGCAAAACGUGUGCUCCGUUGAAUGGAGUUUAUCAUG cannot be ordered by “polymerase ribozyme fitness (log ratio)” value: no more than -4.2 for the first, no more than -4.2 for the second.

Compared with GGAUCUUCUCGAUCUAACACAAAAGACAAAUCUGCCACAAAGCUUGAGGGCAUCUUCGGAUGCAGAGGCGGCAGCCUUCGGUGGCGCGAUAGCGCCAACGUUCUCAACUAUGACACGCAAAACGCGUGCUCCGUUGAAUGGAGUUUAUCAUG, GGAUCUUCUCGAUCUAACACAAAAGACAAAUCUGUCACAAAGCUUGAGAGCAUCUUCGGAUGCAGAGGCGGCAGCCUUCGGUGGCGCGAUAGCGCCGACGUUCUCAACUAUGACACGCAAAACGCGUGCUCCGUUGAAUGGAGUUUAUCAUG is higher in “polymerase ribozyme fitness (log ratio)” value: -0.512 for the first, -0.284 for the second.

Going from GGAUCUUCUCGAUCUAACACAAAAGACAAAUCUGCAACAAAGCUUGAGUGCAUCUGCGGAUGCAGAGGCGGCAGCCUUCGGUGGCGCGAUUGCGCCAACGUUCUCAACUAUGACACGCAAAACGCGUGCUCCGUUGAAUGGAGUUCAUCAUG to GGAUCUUCUCGAUCUAACACAAAAGACAAAUCUGCCACAAAGCUUGAGAGCAUCUUCGGAUGCAGAGGCGGCAGCCUUCGGUGGCGCGAUAGCGCCAUCGUUCUCAACUAUGACACGCAAAACGCGUGCUCCGUUGAAUGGAGUUUAUCAUG, the “polymerase ribozyme fitness (log ratio)” value rises from no more than -4.2 to -1.29.

Going from GGAUCUUCUCGAUCUAACACAAAAGACAAAUCUGCCACAAAGCUUGUGAGUAUCUUCGGAUGCAGAGGCGGCAGCCUUCGGUGGCGCGAUAGCGCCAACGUUCUUAACUAUGACACGCAAAACGCGUGCUCCGUUGAAUGGAGAUUAUCAUG to GGAUCUUCUCGAUCUAACACAAAAGACAAGUCUGCCACAAAGCUUGAGAUCAUCUUCGGAUGCAGAGGCGGCAGCCUUCGGUGGCGCGAUAGCGGCAACGUUCUCAACUAUGACACGCAAAACGCGUGCUCCGUUGAAUGGAGUUUGUCAUG, the “polymerase ribozyme fitness (log ratio)” value falls from -2.59 to no more than -4.2.

Compared with GGAUCUUCUCGAUCUAACACAAAAGCCAACUCUGCCACAAAGCGUGAGAACAUCUUCGGAUGCAGCGGCGGCAGCCUUCGGUGGCGCGAUAGCGCCAACGUUCUCAACUAUGACACGCAAAACGCGUGCUCCGUUGAAUGGAGUUUAUCAUG, GGAUCUUCUCGAUCUAACACAAAAGACAAAUCUGCCACAGAGCUUGAGAGCGUCUUCGGAUGCAGAGGCGGCAGCCUUCGGUGGAGCGAUAGCGCCAGCGUUCUCAACUAUGACACGCAAAACGCGUGCUCCGUUGAAUGGAGUUUAUCAUG is higher in “polymerase ribozyme fitness (log ratio)” value: no more than -4.2 for the first, -4.01 for the second.

GGAUCUUCUCGAUCUAACACAAAUGACAAAUCUGCCACAAAGCAUGAGAGCAUCUUCGGAUGCAGAGGCGGCAGCCUUCGGUGGCGCAAUAGUGCCAACGUUCUCAACUAUGACACGCAAAACGCGUGCUCCGUUGAAUGGAGUUUAUCAUG and GGAUCUUCUCGAUCUAACACAAAAGACAAAUCUGCCACAAAGCUUGAGAGCAUUUUCGGAUGCAGAGGCGGCAGCCUUCGGUGGCCCGAUAGCGCCAACGCUCACAACUAUGACACGCAAAACGCGUGCUCCGUUGAAUGGAGUUUAUCAUG cannot be ordered by “polymerase ribozyme fitness (log ratio)” value: no more than -4.2 for the first, no more than -4.2 for the second.

Compared with GGAUCUUCUCGAUCUAACACAAAAGACAAAUCUGCCACAAAGCUUGAGAGCAUCUUCGGAUGGAGAGGCGGCAGCCUUCGGUGGCGCGAUAGCGCCAACGUUCUCAACUAUGACACGCAAAACGCGUGCUCCGUUGAAUGGAGUUUAUCAUA, GGAUCUUCUCGAUCUAACACAAAAGCCAAAUCUGCCACAAAGCUUGAGAGCAUCUUCGGAUGCAGAGGCGGCAGCCUUCGGUGGCGCGAUAGCGCCAACGUUCUCAACUAUGACACGCAAAACGCGUUCUCCGUUGAAUGGAGGUUAUCAUG is lower in “polymerase ribozyme fitness (log ratio)” value: -2.4 for the first, no more than -4.2 for the second.

GGAUCUUCUCGAUCUAACACAAAAGACAAAUCUGCCACAAAGCUUGAGAGCAUCUUCGGAUGCAGAGGCGGCCGCCUUCGAUGGCGCGACACCGCCAACGUUCGCAACUAUGACACGCAAAACGCGUGCUCCGUUGAAUGGAGUUUAUCAUG and GGAUCUUCUCGAUCUAACACAAAAGACAAAUCUGCCACAAAGCUUGAGGGCAUCUUCGGAUGCAGAGGCGGCAGCCUUCGAUGGCGGGAUAGCGCCAACGUUCGCAACUAUGACACGCAAAACGCGUGCUCCGUUGACUGGAGUUUAUCAUG cannot be ordered by “polymerase ribozyme fitness (log ratio)” value: no more than -4.2 for the first, no more than -4.2 for the second.
